Data reported in paper PMC6624300, “Structure-based mechanism for activation of the AAA+ GTPase McrB by the endonuclease McrC” (Nature Communications, 2019).
Blank lines part the entries; values can stand above or below the molecule they belong to.

B1: McrC endonuclease (enzyme, Escherichia coli, UniProt P15006 1-348, looked up)
chain: MEQPVIPVRNIYYMLTYAWGYLQEIKQANLEAIPGNNLLDILGYVLNKGVLQLSRRGLELDYNPNTEIIPGIKGRIEFAKTIRGFHLNHGKTVSTFDMLNEDTLANRIIKSTLAILIKHEKLNSTIRDEARSLYRKLPGISTLHLTPQHFSYLNGGKNTRYYKFVISVCKFIVNNSIPGQNKGHYRFYDFERNEKEMSLLYQKFLYEFCRRELTSANTTRSYLKWDASSISDQSLNLLPRMETDITIRSSEKILIVDAKYYKSIFSRRMGTEKFHSQNLYQLMNYLWSLKPENGENIGGLLIYPHVDTAVKHRYKINGFDIGLCTVNLGQEWPCIHQELLDIFDEYLK
notes: McrC, endonuclease of the McrBC restriction system, Escherichia coli; Dimer in the complex; Chain N of PDB 6HZ4 holds only residues 193-343 of the second copy; source: E. coli BL21(AI), purified (Ni-NTA, MonoS)
B2: McrBΔN (McrB construct lacking the first 161 residues; AAA+ domain of McrB) (domain or fragment, Escherichia coli, UniProt P15005 162-459, looked up)
chain: MSKTESYCLEDALNDLFIPETTIETILKRLTIKKNIILQGPPGVGKTFVARRLAYLLTGEKAPQRVNMVQFHQSYSYEDFIQGYRPNGVGFRRKDGIFYNFCQQAKEQPEKKYIFIIDEINRANLSKVFGEVMMLMEHDKRGENWSVPLTYSENDEERFYVPENVYIIGLMNTADRSLAVVDYALRRRFSFIDIEPGFDTPQFRNFLLNKKAEPSFVESLCQKMNELNQEISKEATILGKGFRIGHSYFCCGLEDGTSPDTQWLNEIVMTDIAPLLEEYFFDDPYKQQKWTNKLLGDS
notes: McrB, AAA+ GTPase of the McrBC restriction system, Escherichia coli; Forms a hexameric ring in the structure; two rings per tetradecamer; also called McrB∆N; source: E. coli BL21(AI), purified (Ni-NTA, MonoQ, Superdex200)

Key:
[1] = molecular target: MantGMPPNP (GNP); assay: Mant-nucleotide fluorescence time trace (MantGMPPNP + buffer, then protein added); details: protein added at about 160 s, signal before protein est. 26000, parent: est. 40000
[2] = molecular target: the molecule itself; assay: cryo-EM structure; McrBΔN and McrC mixed 4:1 with GTP and MgCl2, complex purified by SEC; grids with 4.0 mg/ml McrBΔNC in 10 mM Tris-HCl pH 7.4, 2.0 mM GNP, 0.10 M NaCl, 5.0 mM MgCl2
[3] = molecular target: B1; assay: as above; details: both partners purified
[4] = value is the mean of the trace after addition, read off a plot

response [1, 4]: 39000 CPS/µAmps
Molecule: McrB (wild type) (from UniProt P15005) E298A

response ([1]; trace hidden under R348A, which the legend says it overlaps, read off a …): 28000 CPS/µAmps
Molecule: McrB (wild type) (from UniProt P15005) R349A

response [1, 4]: 28000 CPS/µAmps
Molecule: McrB (wild type) (from UniProt P15005) R348A

Molecule: B1
stoichiometry N [2]: 2

Molecule: B2
binding result [3]: binds
